IntAct's records for PubMed 29039417

B1: BBSome complex member BBS1 (Homo sapiens), Q8NFJ9 (parent)
chain: MAAASSSDSDACGAESNEANSKWLDAHYDPMANIHTFSACLALADLHGDGEYKLVVGDLGPGGQQPRLKVLKGPLVMTESPLPALPAAAATFLMEQHEPRTPALALASGPCVYVYKNLRPYFKFSLPQLPPNPLEQDLWNQAKEDRIDPLTLKEMLESIRETAEEPLSIQSLRFLQLELSEMEAFVNQHKSNSIKRQTVITTMTTLKKNLADEDAVSCLVLGTENKELLVLDPEAFTILAKMSLPSVPVFLEVSGQFDVEFRLAAACRNGNIYILRRDSKHPKYCIELSAQPVGLIRVHKVLVVGSTQDSLHGFTHKGKKLWTVQMPAAILTMNLLEQHSRGLQAVMAGLANGEVRIYRDKALLNVIHTPDAVTSLCFGRYGREDNTLIMTTRGGGLIIKILKRTAVFVEGGSEVGPPPAQAMKLNVPRKTRLYVDQTLREREAGTAMHRAFQTDLYLLRLRAARAYLQALESSLSPLSTTAREPLKLHAVVQGLGPTFKLTLHLQNTSTTRPVLGLLVCFLYNEALYSLPRAFFKVPLLVPGLNYPLETFVESLSNKGISDIIKVLVLREGQSAPLLSAHVNMPGSEGLAAA
partner: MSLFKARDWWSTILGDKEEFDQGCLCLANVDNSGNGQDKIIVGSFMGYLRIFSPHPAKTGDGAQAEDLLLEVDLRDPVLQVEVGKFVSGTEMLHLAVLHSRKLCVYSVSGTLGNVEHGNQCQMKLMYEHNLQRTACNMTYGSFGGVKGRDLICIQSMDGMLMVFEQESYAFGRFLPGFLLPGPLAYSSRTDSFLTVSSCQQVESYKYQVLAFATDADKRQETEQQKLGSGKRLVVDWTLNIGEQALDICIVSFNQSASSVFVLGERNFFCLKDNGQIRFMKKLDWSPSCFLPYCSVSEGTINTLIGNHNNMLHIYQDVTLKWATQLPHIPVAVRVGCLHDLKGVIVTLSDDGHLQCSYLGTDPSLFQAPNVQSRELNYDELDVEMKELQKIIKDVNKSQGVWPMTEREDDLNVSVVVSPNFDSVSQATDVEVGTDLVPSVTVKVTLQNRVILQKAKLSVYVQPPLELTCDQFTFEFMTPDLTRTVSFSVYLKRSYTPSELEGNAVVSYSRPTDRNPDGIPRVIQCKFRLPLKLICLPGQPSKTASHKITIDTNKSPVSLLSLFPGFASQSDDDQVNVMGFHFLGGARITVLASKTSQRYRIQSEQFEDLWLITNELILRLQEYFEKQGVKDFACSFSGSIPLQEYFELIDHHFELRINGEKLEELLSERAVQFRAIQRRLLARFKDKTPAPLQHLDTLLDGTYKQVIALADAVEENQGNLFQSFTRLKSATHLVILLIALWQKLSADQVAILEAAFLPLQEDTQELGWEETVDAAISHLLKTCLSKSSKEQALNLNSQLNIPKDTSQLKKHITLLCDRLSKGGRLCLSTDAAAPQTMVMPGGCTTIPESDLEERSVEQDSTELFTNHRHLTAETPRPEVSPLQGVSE

Variants of: B1
Details: with pthb1_human BBS9, Q3SYG4

| Variant | effect of a mutation on the interaction |
| --- | --- |
| MAAASSSDSDACGAESNEANSKWLDAHYDPMANIHTFSACLALADLHGDGEYKLVVGDLGPGGQQPRLKVLKGPLVMTESPLPALPAAAATFLMEQHEPRTPALALASGPCVYVYKNLRPYFKFSLPQLPPNPLEQDLWNQAKEDRIDPLTLKEMLESIRETAEEPLSIQSLRFLQLELSEMEAFVNQHKSNSIKRQTVITTMTTLKKNLADEDAVSCLVLGTENKELLVLDPEAFTILAKMSLPSVPVFLEVSGQFDVEFRLAAACRNGNIYILRRDSKHPKYCIELSAQPVGLIRVHKVLVVGSTQDSLHGFTHKGKKLWTVQMPAAILTMNLLEQHSRGLQAVMAGLANGEVRIYRDKALLNVIHTPDAVTSLCFGRYGREDNTLIMTTRGGGLIIKILKRTAVFVEGGSEVGPPPAQAMKLNVPRKTRLYVDQTLREREAGTAMHRAFQTDLYLLRLRAARAYLQALESSLSPLSTTAREPLKLHAVVQGLGPTFKLTLHLQNTSTTRPVLGLLVCFLYNEALYSLPRAFFKVKLLVPGLNYPLETFVESLSNKGISDIIKVLVLREGQSAPLLSAHVNMPGSEGLAAA [P538K] | with no effect |
| MAAASSSDSDACGAESNEANSKWLDAHYDPMANIHTFSACLALADLHGDGEYKLVVGDLGPGGQQPRLKVLKGPLVMTESPLPALPAAAATFLMEQHEPRTPALALASGPCVYVYKNLRPYFKFSLPQLPPNPLEQDLWNQAKEDRIDPLTLKEMLESIRETAEEPLSIQSLRFLQLELSEMEAFVNQHKSNSIKRQTVITTMTTLKKNLADEDAVSCLVLGTENKELLVLDPEAFTILAKMSLPSVPVFLEVSGQFDVEFRLAAACRNGNIYILRRDSKHPKYCIELSAQPVGLIRVHKVLVVGSTQDSLHGFTHKGKKLWTVQMPAAILTMNLLEQHSRGLQAVMAGLANGEVRIYRDKALLNVIHTPDAVTSLCFGRYGREDNTLIMTTRGGGLIIKILKRTAVFVEGGSEVGPPPAQAMKLNVPRKTRLYVDQTLREREAGTAMHRAFQTDLYLLRLRAARAYLQALESSLSPLSTTAREPLKLHAVVQGLGPTFKLTLHLQNTSTTRPVLGLLVCFLYNEALYSLPRAFFKVPALVPGLNYPLETFVESLSNKGISDIIKVLVLREGQSAPLLSAHVNMPGSEGLAAA [L539A] | disrupting interaction strength |
| MAAASSSDSDACGAESNEANSKWLDAHYDPMANIHTFSACLALADLHGDGEYKLVVGDLGPGGQQPRLKVLKGPLVMTESPLPALPAAAATFLMEQHEPRTPALALASGPCVYVYKNLRPYFKFSLPQLPPNPLEQDLWNQAKEDRIDPLTLKEMLESIRETAEEPLSIQSLRFLQLELSEMEAFVNQHKSNSIKRQTVITTMTTLKKNLADEDAVSCLVLGTENKELLVLDPEAFTILAKMSLPSVPVFLEVSGQFDVEFRLAAACRNGNIYILRRDSKHPKYCIELSAQPVGLIRVHKVLVVGSTQDSLHGFTHKGKKLWTVQMPAAILTMNLLEQHSRGLQAVMAGLANGEVRIYRDKALLNVIHTPDAVTSLCFGRYGREDNTLIMTTRGGGLIIKILKRTAVFVEGGSEVGPPPAQAMKLNVPRKTRLYVDQTLREREAGTAMHRAFQTDLYLLRLRAARAYLQALESSLSPLSTTAREPLKLHAVVQGLGPTFKLTLHLQNTSTTRPVLGLLVCFLYNEALYSLPRAFFKVPELVPGLNYPLETFVESLSNKGISDIIKVLVLREGQSAPLLSAHVNMPGSEGLAAA [L539E] | disrupting interaction strength |

The remaining lines, values ahead:

| effect of a mutation on the interaction | Variant |
| --- | --- |
| disrupting interaction strength | MAAASSSDSDACGAESNEANSKWLDAHYDPMANIHTFSACLALADLHGDGEYKLVVGDLGPGGQQPRLKVLKGPLVMTESPLPALPAAAATFLMEQHEPRTPALALASGPCVYVYKNLRPYFKFSLPQLPPNPLEQDLWNQAKEDRIDPLTLKEMLESIRETAEEPLSIQSLRFLQLELSEMEAFVNQHKSNSIKRQTVITTMTTLKKNLADEDAVSCLVLGTENKELLVLDPEAFTILAKMSLPSVPVFLEVSGQFDVEFRLAAACRNGNIYILRRDSKHPKYCIELSAQPVGLIRVHKVLVVGSTQDSLHGFTHKGKKLWTVQMPAAILTMNLLEQHSRGLQAVMAGLANGEVRIYRDKALLNVIHTPDAVTSLCFGRYGREDNTLIMTTRGGGLIIKILKRTAVFVEGGSEVGPPPAQAMKLNVPRKTRLYVDQTLREREAGTAMHRAFQTDLYLLRLRAARAYLQALESSLSPLSTTAREPLKLHAVVQGLGPTFKLTLHLQNTSTTRPVLGLLVCFLYNEALYSLPRAFFKVLLLVPGLNYPLETFVESLSNKGISDIIKVLVLREGQSAPLLSAHVNMPGSEGLAAA [P538L] |
| disrupting interaction strength | MAAASSSDSDACGAESNEANSKWLDAHYDPMANIHTFSACLALADLHGDGEYKLVVGDLGPGGQQPRLKVLKGPLVMTESPLPALPAAAATFLMEQHEPRTPALALASGPCVYVYKNLRPYFKFSLPQLPPNPLEQDLWNQAKEDRIDPLTLKEMLESIRETAEEPLSIQSLRFLQLELSEMEAFVNQHKSNSIKRQTVITTMTTLKKNLADEDAVSCLVLGTENKELLVLDPEAFTILAKMSLPSVPVFLEVSGQFDVEFRLAAACRNGNIYILRRDSKHPKYCIELSAQPVGLIRVHKVLVVGSTQDSLHGFTHKGKKLWTVQMPAAILTMNLLEQHSRGLQAVMAGLANGEVRIYRDKALLNVIHTPDAVTSLCFGRYGREDNTLIMTTRGGGLIIKILKRTAVFVEGGSEVGPPPAQAMKLNVPRKTRLYVDQTLREREAGTAMHRAFQTDLYLLRLRAARAYLQALESSLSPLSTTAREPLKLHAVVQGLGPTFKLTLHLQNTSTTRPVLGLLVCFLYNEALYSLPRAFFKVPKLVPGLNYPLETFVESLSNKGISDIIKVLVLREGQSAPLLSAHVNMPGSEGLAAA [L539K] |
